The text below walks through data of publication PMC9888390 (2023).

In this experiment the target is Recombinant HSV-1 glycoprotein B, soluble ectodomain (HSV-1). As to the kind of experiment: Luminex binding assay.

B1: BMPC-23 recombinant mouse IgG (antibody, V domains shown)
VH: QVQLQQSGPELVKPGASVKLSCKASGYSFTTYDINWVKERPGQGLEWIGWIYPREGSTNYNEKFRGKATLTADTSSSTAYMELHSLTSEDSAVYFCATYGSSRYYTMDYWGQGTSVTVSS
VL: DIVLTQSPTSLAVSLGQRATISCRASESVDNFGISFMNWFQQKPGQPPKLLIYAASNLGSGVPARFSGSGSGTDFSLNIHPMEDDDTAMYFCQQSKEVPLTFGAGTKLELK
Usually EC50 stands for the concentration at which the effect is half-maximal. Consider B1, for which the EC50 was 3.5 ng/mL.
